Source: PMC11211068 (The Journal of Experimental Medicine, 2024)
Positions count from the first letter of the chain named.

Legend:
[1] = target: T1, H1 HA from A/Michigan/45/2015 H1N1, recombinant (Immune Technology) (Influenza A virus A/Michigan/45/2015 …, UniProt A0A1J0CXU0, strain); experiment: ELISA
[2] = target: H1 HA from A/Solomon Islands/3/2006 H1N1, recombinant (IRR FR-67) (Influenza A virus A/Solomon …, UniProt A7Y8I1, strain); experiment: ELISA
[3] = target: H1 HA from A/Brisbane/59/2007 H1N1, recombinant (IRR FR-65) (Influenza A virus A/Brisbane/59/2007 …, UniProt D5F1Q8, strain); experiment: ELISA
[4] = target: H1 HA from A/Norway/3206-3/2009 H1N1, recombinant (IRR FR-697) (Influenza A virus A/Norway/3206-3/2009 …, UniProt C3W5S1, strain); experiment: ELISA
[5] = target: H1 HA from A/California/04/2009 H1N1pdm09, recombinant (Immune Technology) (Influenza A virus A/California/04/2009 …, UniProt C3W5S1, strain); experiment: ELISA
[6] = target: T1, H1 HA from A/Michigan/45/2015 H1N1, …; experiment: BLI

Measured: binding result

B1: 05.GC.w13.02 (antibody, V domains shown)
VH: QVQLVQSGTEVKKPGSSVKVSCKASGVTFSSYAMSWVRQAPGQGLEWMGGFIPILGTANYAQKFQGRLTITADGLTGTVYMELSRLRSEDTAVYYCAREVTWKGASIGVLGIWGQGTMVSVSA
VL: DIQMTQSPSSLSASVGDRVIITCRANQSIGGYLNWYQQKPGKAPNLLIFTASTLQSGVPSRFSGGGSGTDFTLTISSLQPEDFATYYCQQNYNTPRTFGQGTKVDIK
not listed: [6]
binds: all other assays above

B2: 05.GC.w2.3C10 (antibody, V domains shown)
VH: EVQLVQSGAEVKKPGSSVRVSCKASGGTFSAISWVRQAPGQGLEWMGGIIPVFGTANYAQKFQGRVTITADDSTSTAYMEVSSLRSDDTAVYYCAREETWKGATIGVMGIWGQGTMVTVSS
VL: DIQMTQSPSSLSASVGDRVTITCRASQSISSYLNWYQHKPGKAPKLLIFTASNLQSGVPSRFSGGGSGTDFTLTISSLQPEDFATYYCQQSYTSPRTFGQGTKVEIK
binds: [1] | [2] | [3]

B3: 05.GC.w13.01 (antibody, V domains shown)
VH: QVQLVQSGAEVKKPGSSVKVSCEASGVTFSSYAVSWVRQAPGQGLEWMGGIIPIVGTANYAQKFQGRVTITADGLTSTVYMELSRLRSEDTAVYFCAREATWKGSSIGVLGIWGQGTMVTVSA
VL: B1 VL with I20T, N26S, G30S, G31D, N45S, T50S, G65S, D105E
not listed: [6]
binds: all other assays above

B4: 05.GC.w13.02 Fab, His6 tag removed with thrombin (Fab, V domains shown)
VH: B1 VH
VL: B1 VL
binds: [6]
